Test results published in the RNAGym collection of RNA variant scans (doi:10.1073/pnas.2313332121).
For some assays here: This sample holds only a part of the variants without activity.

B1: TPR t1 (parent)
chain: GACCAAUCUGCCCUCAGAGCUCGAGAACAUCUUCGGAUGCAGAGGAGGCAGGCUUCGGUGGCGCGAUAGCGCCAACGUCCUCAACCUCCAAUGCAUCCCACCACAUGAUGAUGCCUGAAGAGCCUUGGUUUUUUG
B2: TPR 5TU (parent)
chain: GGAUCUUCUCGAUCUAACAAAAAAGACAAAUCUGCCACAAAGCUUGAGAGCAUCUUCGGAUGCAGAGGCGGCAGCCUUCGGUGGCGCGAUAGCGCCAACGUUCUCAACUAUGACACGCAAAACGCGUGCUCCGUUGAAUGGAGUUUAUCAUG

Variants of: B1
Test: polymerase ribozyme fitness, log enrichment relative to wild type (log ratio); higher = more active; in vitro selection for triplet polymerase activity
Outline: (§1)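 Each subunit of a heterodimeric triplet polymerase ribozyme was mutagenized into a library by PCR, transcribed, and subjected to one round of in vitro selection, run in triplicate. Libraries were annealed with a biotinylated primer, the partner subunit and triplets, incubated frozen at −7 °C, and extended constructs were gel-excised, captured on streptavidin beads and recovered by RT-PCR. Input and output libraries were sequenced on Illumina, keeping genotypes with ≥10 input reads and ≥1 read per output. Fitness is log base 2 of genotype enrichment divided by wild-type enrichment, from inverse-variance-weighted replicate averages.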

Variant	polymerase ribozyme fitness (log ratio)
C124U U126A	1.37
C123G U131A	0.367
C123G U129A	-1.13
C124A G128U	0.625
U129G U130A	-2.04
G122U C124G U130A	0.942
C123A G128U	-0.255
C123U C124A	2.14
C123A G135A	0.422
G127A U130C	-0.727
C123G U125C	1.61
G122U U130G	-0.749
G128C U130C	-1.33
U131C U132A	-0.543
G122U	0.322
G122C	-2.37
C123A C124U	2.15

Variant	polymerase ribozyme fitness (log ratio)
C123G U133A	2.19
G127U G128A	-2.19
U129A G135C	-0.497
G127A U129A	-1.26
C124A U125A	1.57
G127U U132C	-0.0869
U129C	-0.185
U129A	-1.11
U129G	-1.1
U133A	-0.252
U133C	0.332
U133G	-0.279
U133G G135C	0.463
G127C G128U U133A	-1.83
G122A U130A	-0.49
U130G U131A	-0.66

Variants of: B2
Test: as above
Outline: as §1

Variant	polymerase ribozyme fitness (log ratio)
A3G C51A	-1.26
A3U G92A A113G G133U A142U U146G	≤ -4.2
U4G C10U G83U A98U C105U	-0.982
A3G A20G G48C G50C G67C G68A G83A U139C	≤ -4.2
A3G U13A G42C C75U A138U	≤ -4.2
U4A C8G U53G G71U A73G C79G C85G C87A G88U G92U A115G	≤ -4.2
A3C C5U G62C	-1.89
A3U A39G A52G U144C	-3.97
A3C U7C A47C U55A G59A A73U U82G U146C	≤ -4.2
U4G U7C A16G C96G	-2.73
C5A A17U G83A U146G	-0.599
A3G C5G G48C A52C C54G A66C C76G	≤ -4.2
A3U G58C G59C C96U C131A	-3.63
A3U A24U A66U C93G A107C	≤ -4.2
A3C A22U A49U A52G U56A	-3.02
C5A C14G A19G C36A U102G C132G	≤ -4.2
A3G U4A A17C A52G G94C U102C C131U	-1.71
A3U U45A C96A	-3.51
A3C G58A G94A	-0.578
A3G U9G C36A G67A G68C A73G U135G	≤ -4.2
U4A A12U G84A A89G	-0.965
A3G A20C G65C G68C A98G C149U G152U	≤ -4.2
A3U A19U	-0.0693
C5A C93U C105U C149G	-3.96
C5A G58A G86U	-1.52

Variant	polymerase ribozyme fitness (log ratio)
A3C A16G A24U G48U G74U G83A A107C U130A	≤ -4.2
U4C A23C A37G U53A	≤ -4.2
A3U U55A	-0.84
A3U U55A G84A	-0.911
C5A A26C A30U A52C G70A G86C	≤ -4.2
C5A G94U C95A C123A U135C	-3.89
U4C U15C A22C A29U C43G U44A U45G C57U G59U C93U	≤ -4.2
A3C U4A G71U G88A	≤ -4.2
U4G A73G A97G	0.0284
U4A G92A G141A	-3.96
C5A C72U C85U C95U	-0.0103
C5A U6G U82C C95G	-2.28
A3C G34C G48C A106U A138G A150G	≤ -4.2
U4A C10U A26U U31G A39G C57A C85A U90G A113C	≤ -4.2
A3U A16U A17G A23C C93U A106G A122G U139G	≤ -4.2
U4C G25U U61G G86U C93U G133C	≤ -4.2
A3G C18U G34U C95U A115C	-4.09
C5A C35A U55A A91G G100U G126A A147G	≤ -4.2
A3U U7C A52C C95U C99U	≤ -4.2
A3U A17C A47U C93U U104A	-1.38
A3U C108U	-3.59
A3G U53C A60C G62C A91G U104C C118A A120U U134G	≤ -4.2
U4A A16G A37U A91G G124U	≤ -4.2
A3U A20U C32U G70U G84U A120C	≤ -4.2
A3G C43U G65U G68A G71A G86U G112U G152A	≤ -4.2
